Source: article PMC8993412 (Journal of Molecular Biology, 2022)

Legend:
[1] = biological target: Nsp1 in SARS-CoV-2-infected VeroE6 cells (SARS-CoV-2 USA-WA1/2020, UniProt P0DTD1); experiment: immunostaining of cells or tissue
[2] = biological target: SARS-CoV-2 Nsp1, full-length protein (recombinant) (SARS-CoV-2, reference, UniProt P0DTD1); experiment: ELISA
[3] = biological target: SARS-CoV-2 Nsp12 (recombinant) (SARS-CoV-2, reference, UniProt P0DTD1); experiment: western blot
[4] = biological target: Nsp12 in SARS-CoV-2-infected VeroE6 cells (SARS-CoV-2 USA-WA1/2020, UniProt P0DTD1); experiment: immunostaining of cells or tissue

B1: IgG 15497 (anti-Nsp1) (antibody, V domains shown)
VH: EVQLVESGGGLVQPGGSLRLSCAASGFNFSSSSIHWVRQAPGKGLEWVASISSSYGYTYYADSVKGRFTISADTSKNTAYLQMNSLRAEDTAVYYCARWAAMDYWGQGTLVTVSS
VL: DIQMTQSPSSLSASVGDRVTITCRASQSVSSAVAWYQQKPGKAPKLLIYSASSLYSGVPSRFSGSRSGTDFTLTISSLQPEDFATYYCQQYYSLITFGQGTKVEIK
[1]
  binding result: binds

B2: Fab 15497 (Fab-phage clone) (Fab, V domains shown)
VH: EVQLVESGGGLVQPGGSLRLSCAASGFNFSSSSIHWVRQAPGKGLEWVASISSSYGYTYYADSVKGRFTISADTSKNTAYLQMNSLRAEDTAVYYCARWAAMDYWGQGTLVTVSS
VL: DIQMTQSPSSLSASVGDRVTITCRASQSVSSAVAWYQQKPGKAPKLLIYSASSLYSGVPSRFSGSRSGTDFTLTISSLQPEDFATYYCQQYYSLITFGQGTKVEIK
[2]
  binding result: binds

B3: IgG 15884 (anti-Nsp12) (antibody, V domains shown)
VH: EVQLVESGGGLVQPGGSLRLSCAASGFNIYYYSMHWVRQAPGKGLEWVASIYSYYGYTSYADSVKGRFTISADTSKNTAYLQMNSLRAEDTAVYYCARHPAYGGMDYWGQGTLVTVSS
VL: DIQMTQSPSSLSASVGDRVTITCRASQSVSSAVAWYQQKPGKAPKLLIYSASSLYSGVPSRFSGSRSGTDFTLTISSLQPEDFATYYCQQSHWHPITFGQGTKVEIK
[3]
  binding result: binds
[4]
  binding result: binds

B4: Fab 15498 (Fab-phage clone) (Fab, V domains shown)
VH: EVQLVESGGGLVQPGGSLRLSCAASGFNISSSSMHWVRQAPGKGLEWVAAVASFYGATYYADSVKGRFTISADTSKNTAYLQMNSLRAEDTAVYYCARAYHAGLDYWGQGTLVTVSS
VL: DIQMTQSPSSLSASVGDRVTITCRASQSVSSAVAWYQQKPGKAPKLLIYSASSLYSGVPSRFSGSRSGTDFTLTISSLQPEDFATYYCQQWYYYSAAVTFGQGTKVEIK
[2]
  binding result: binds
